In patent US12667624B2, “GIP derivative, long-acting conjugate thereof, and pharmaceutical composition comprising same” (HANMI PHARM. CO., LTD., priority 2020, dated 2026):
Non-standard residues stand in square brackets, D forms with d. No end group written: not given here. Aib = CC(C)(N)C(=O)O

How the values were obtained:
[1] = molecular target: T1, human GIP receptor (Homo sapiens, UniProt P48546); assay: In vitro activity of long-acting GIP conjugates: cAMP accumulation in CHO cells expressing human GIP receptor; format: cell-based; settings: relative potency from cAMP EC50, CHO cells expressing human GIP receptor; PEG-immunoglobulin Fc conjugates
T1 construct: expressed in transfected cells; host or cells: CHO (Chinese hamster ovary)
T1 sequence (P48546 22-466): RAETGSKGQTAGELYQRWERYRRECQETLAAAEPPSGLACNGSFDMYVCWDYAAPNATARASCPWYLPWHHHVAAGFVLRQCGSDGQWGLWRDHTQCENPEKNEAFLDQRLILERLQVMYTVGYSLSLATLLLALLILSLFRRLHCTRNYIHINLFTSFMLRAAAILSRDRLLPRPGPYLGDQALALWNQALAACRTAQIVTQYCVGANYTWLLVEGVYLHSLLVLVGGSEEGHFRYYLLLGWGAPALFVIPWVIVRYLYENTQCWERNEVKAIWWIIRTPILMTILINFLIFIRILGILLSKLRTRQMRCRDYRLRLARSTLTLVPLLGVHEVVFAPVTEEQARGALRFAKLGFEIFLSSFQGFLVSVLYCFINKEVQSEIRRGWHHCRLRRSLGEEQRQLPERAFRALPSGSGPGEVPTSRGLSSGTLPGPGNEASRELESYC
Method: To measure the activity of the long-acting GIP conjugates prepared in Example 3, a method of measuring cell activity in vitro using a cell line transformed with the GIP receptor was used in the same manner as in Example 2.
In detail, to measure the activity of the long-acting GIP derivatives in the human GIP receptors, human GIP was serially diluted from 16 nM to 0.000015 nM by 4 folds, and the long-acting GIP derivatives prepared in Example 1 were each serially diluted from 50 nM to 0.000048 nM by 4 folds. The culture medium was removed from the cultured CHO cells where the human GIP receptors were expressed, 5 μl of each of the serially diluted materials was added to the cells, and then, 5 μl of buffer containing cAMP antibody was added thereto, followed by incubation at room temperature for 15 minutes. Next, the cells were lysed by adding 10 μl of detection mix containing cell lysis buffer, and then allowed for a reaction at room temperature for 90 minutes. The cell lysate obtained by the completion of the reaction was applied to the LANCE cAMP kit (PerkinElmer, USA) to calculate the EC50 value through the accumulated cAMP to be compared with each other.

[2] = tested on: THP-1 cell line; assay: Expression of inflammation-related genes in LPS-treated THP-1 cell line (real-time PCR); format: cell-based, human; settings: THP-1, LPS 1 μg/mL; native GIP 10 μM, long-acting GIP derivative 1 or 10 μM; FIG. 2A
Text: To confirm the in vitro anti-inflammatory effect of the long-acting GIP derivative conjugate on vasculitis, a human monocyte/macrophage cell line, THP-1 cell line, was used. A macrophage is known to secrete cytokines and chemokines in the early stage of infection in vasculitis-infected tissue, induce the progress of inflammation by utilizing other immune cells, and form giant cells. Therefore, identification of the anti-inflammatory effect in macrophages is referred to as an appropriate in vitro system for evaluating the efficacy on vasculitis.
The THP-1 cell line was cultured in RPMI 1640 medium supplemented with 10% fetal bovine serum (FBS), 100 μg/mL of streptomycin, 100 U/mL of penicillin, and […] of β-mercaptoethanol, under conditions of a temperature of 37° C. and 5% carbon dioxide. […] For use as the long-acting GIP derivative, the long-acting GIP conjugate (SEQ ID NO: 17) prepared in Example 3 was used.
RNA was isolated from the completely treated THP-1 cell line by using the RNeasy Mini Kit (Qiagen, US), and then cDNA was synthesized by using the iScript™ cDNA Synthesis Kit (Bio-rad, U.S.). The synthesized cDNA was referred to confirm the expression levels of inflammation-related genes by using the QuantStudio 6 Flex Real-Time PCR System (Applied Biosystems, U.S.). Here, the Delta Ct method was used, and beta-actin was used as a housekeeping gene. […]

[3] = tested on: THP-1 cell line; assay: TNF-α concentration in medium of LPS-treated THP-1 cell line (ELISA); format: cell-based, human; settings: THP-1, LPS 0.1 pg/mL; native GIP 1 μM, long-acting GIP derivative 0.1 μM or 1 μM; FIG. 2B
Text: Here, the medium was quantified by using Human TNF alpha ELISA Kit (Abcam, US).

Substance | In vitro activity of long-acting GIP derivative compared to human native GIP in human GIP receptor (%) [1] | expression levels of inflammation-related genes IL-6, IL-12, IL-1β and TNF-α [2] | concentration of TNF-α in the medium [3]
YAibEGT FISDYSIALEKQAQQDFVNWLLAGGPSSGAPPPSC (Y[Aib]EGTFISDYSIALEKQAQQDFVNWLLAGGPSSGAPPPSC) [SEQ ID NO: 17, GIP derivative peptide] | 153.2% |  | 
YAibEGT FISDYSIAMDAIAQQDFVNWLLAQKGKKNDWKHNITQC (Y[Aib]EGTFISDYSIAMDAIAQQDFVNWLLAQKGKKNDWKHNITQC) [SEQ ID NO: 11, GIP derivative peptide] | 84.8% |  | 
YAibEGT FISDY SIAibLD KQAAAib EFVNW LLAibGG PSSGA PPPSC (Y[Aib]EGTFISDYSI[Aib]LDKQAA[Aib]EFVNWLL[Aib]GGPSSGAPPPSC) [SEQ ID NO: 21, GIP derivative peptide] | 148.5% |  | 
YAibEGT FISDY SIAibLD KQAAAib EFVNW LLAibGH PSSGA PPPSC (Y[Aib]EGTFISDYSI[Aib]LDKQAA[Aib]EFVNWLL[Aib]GHPSSGAPPPSC) [SEQ ID NO: 24, GIP derivative peptide] | 123.3% |  | 
glucose-dependent insulinotropic polypeptide [native GIP] |  | decreased | decreased
